{"source": "paper PMC12502808", "about": "“Catalytic His-loop flexibility drives high activity in hyperthermophilic esterase EstE1 while preserving structural stability” (Microbiology Spectrum, 2025)", "molecules": {"B1": {"name": "EstE1 (uncultured archaeon) (protein)", "chain": "MPLDPQIKPILERIRALSIAASPQELRRQVEEQSRLLTAAVQEPIAETRDVHIPVSGGSIRARVYFPKKAAGLPAVLYYHGGGFVFGSIETHDHICRRLSRLSDSVVVSVDYRLAPEYKFPTAVEDAYAALKWVADRADELGVDPDRIAVAGDSAGGNLAAVVSILDRNSGEKLVKKQVLIYPVVNMTGVPTASLVEFGVAETTSLPIELMVWFGRQYLKRPEEAYDFKASPLLADLGGLPPALVVTAEYDPLRDEGELYAYKMKASGSRAVAVRFAGMVHGFVSFYPFVDAGREALDLAAASIRSGLQPS"}, "B2": {"name": "EstE1 (uncultured archaeon; G282N) (protein)", "chain": "B1 chain with G282N"}, "B3": {"name": "EstE1 (uncultured archaeon; G282Q) (protein)", "chain": "B1 chain with G282Q"}, "B4": {"name": "rPPE (Pseudomonas sp. ECU1011) (protein)", "chain": "GSPGVEQHTKAFLEALEQGGGKPLEQLSPKDARAVLTGAQASVKVDLSGIEVKERTIQANGQSIKLQVVRPANVKGELPVFMFFHGGGWVLGDFPTHQRLIRDLVVGSGAVAVYVDYTPSPESHYPTAINQAYAATQWVAEHGKEIGVDGKRLAVAGNSVGGNMAAVVALKAKEAGTPALRFQLLLWPVTDASFETASYKQFADGHFLTTGMMKWFWDNYTTDAKAREQIYASPLRASSEQLKGLPPALVQTAEFDVLRDEGEAYARKLNAAGVTVTSVRYNGMIHDYGLLNPLSQVPAVKAAMRQAGTELKVHLQ"}}, "key": {"[1]": {"target": "EstE1 wild type (hyperthermophilic esterase)", "experiment": "SEC; Superdex 200 column equilibrated with 50 mM sodium phosphate, 150 mM NaCl, pH 7.0; molecular weight determination of the purified protein"}, "[2]": {"test_system": "CC(=O)Oc1ccc([N+](=O)[O-])cc1", "experiment": "purified protein", "type": "biochemical, Pseudomonas sp. ECU1011", "settings": "100 mM Tris-HCl, 100 mM NaCl, pH 7.5, optimal temperature (45-50°C for WT, 30°C for mutants)"}, "purified protein [3]": {"substrate": "CCCCCC(=O)Oc1ccc([N+](=O)[O-])cc1", "experiment": "purified protein", "type": "biochemical, uncultured archaeon", "settings": "100 mM Tris-HCl, 100 mM NaCl, pH 7.5, optimal temperature 70°C"}, "purified protein [4]": {"substrate": "CC(=O)Oc1ccc([N+](=O)[O-])cc1", "experiment": "purified protein", "type": "biochemical, Pseudomonas sp. ECU1011", "settings": "100 mM Tris-HCl, 100 mM NaCl, pH 7.5, optimal temperature (45-50°C)"}}, "note": "Substitutions are numbered along the chain they refer to. Names may count otherwise.", "data": [{"molecule": "EstE1 wild type (hyperthermophilic esterase) (enzyme)", "values": [{"measurement": "stoichiometry N", "setting": "[1]", "result": 2}]}, {"molecule": "rPPE (Pseudomonas sp. ECU1011; D287E)", "values": [{"measurement": "Km", "setting": "[2]", "result": "6 ± 1", "unit": "µM"}, {"measurement": "kcat", "setting": "[2]", "result": "2.1 ± 0.1", "unit": "s⁻¹"}, {"measurement": "kcat/Km", "setting": "[2]", "result": "330000 ± 20000", "unit": "M⁻¹ s⁻¹"}]}, {"molecule": "rPPE (Pseudomonas sp. ECU1011; D287G)", "values": [{"measurement": "Km", "setting": "[2]", "result": "114 ± 2", "unit": "µM"}, {"measurement": "kcat", "setting": "[2]", "result": "13 ± 1", "unit": "s⁻¹"}, {"measurement": "kcat/Km", "setting": "[2]", "result": "110000 ± 10000", "unit": "M⁻¹ s⁻¹"}]}, {"molecule": "B1", "values": [{"measurement": "Km", "setting": "purified protein [3]", "result": "1520 ± 17", "unit": "µM"}, {"measurement": "kcat", "setting": "purified protein [3]", "result": "2900 ± 1", "unit": "s⁻¹"}, {"measurement": "kcat/Km", "setting": "purified protein [3]", "result": "1.91e+06 ± 20000", "unit": "M⁻¹ s⁻¹"}]}, {"molecule": "B2", "values": [{"measurement": "Km", "setting": "purified protein [3]", "result": "1330 ± 79", "unit": "µM"}, {"measurement": "kcat", "setting": "purified protein [3]", "result": "1980 ± 84", "unit": "s⁻¹"}, {"measurement": "kcat/Km", "setting": "purified protein [3]", "result": "1.49e+06 ± 30000", "unit": "M⁻¹ s⁻¹"}]}, {"molecule": "B3", "values": [{"measurement": "Km", "setting": "purified protein [3]", "result": "745 ± 40", "unit": "µM"}, {"measurement": "kcat", "setting": "purified protein [3]", "result": "950 ± 27", "unit": "s⁻¹"}, {"measurement": "kcat/Km", "setting": "purified protein [3]", "result": "1.28e+06 ± 30000", "unit": "M⁻¹ s⁻¹"}]}, {"molecule": "B4", "values": [{"measurement": "Km", "setting": "purified protein [4]", "result": "33 ± 1", "unit": "µM"}, {"measurement": "kcat", "setting": "purified protein [4]", "result": "2 ± 0.1", "unit": "s⁻¹"}, {"measurement": "kcat/Km", "setting": "purified protein [4]", "result": "60000 ± 10000", "unit": "M⁻¹ s⁻¹"}]}]}
